Assay results: article PMC9166738

Tests used:
[1] = molecular target: Fdh3B-CodhA fusion protein with (GGGGS)1 linker (Thermococcus onnurineus NA1); assay: SEC; Strep-tag purified CFOR complex on a calibrated Superdex 200 10/300 GL column in buffer W, 0.5 ml/min, anaerobic; complex formed in cells and co-purified beforehand
[2] = molecular target: Formate dehydrogenase catalytic subunit Fdh3A with N-terminal Strep-tag (Thermococcus onnurineus NA1); assay: as above

Substance | stoichiometry N [1] | stoichiometry N [2]
CO dehydrogenase catalytic subunit CodhB (enzyme) | 2 | –
Fdh3B-CodhA fusion protein with (GGGGS)1 linker | – | 1
